Reference: patent publication US20160084839A1 (Merck Sharp & Dohme, published 2016)

Molecular target: T1, human programmed death ligand 1 (PD-L1) (human, UniProt Q9NZQ7 19-290)
T1 construct: Endogenous PD-L1 on tumor, stromal and inflammatory cells in formalin-fixed, paraffin-embedded tumor tissue sections; 22C3 is described as an anti-human PD-L1 antibody; also called mature PD-L1; hPD-L1
Assay: IHC on FFPE NSCLC tissue section

T1 sequence (Q9NZQ7 19-290): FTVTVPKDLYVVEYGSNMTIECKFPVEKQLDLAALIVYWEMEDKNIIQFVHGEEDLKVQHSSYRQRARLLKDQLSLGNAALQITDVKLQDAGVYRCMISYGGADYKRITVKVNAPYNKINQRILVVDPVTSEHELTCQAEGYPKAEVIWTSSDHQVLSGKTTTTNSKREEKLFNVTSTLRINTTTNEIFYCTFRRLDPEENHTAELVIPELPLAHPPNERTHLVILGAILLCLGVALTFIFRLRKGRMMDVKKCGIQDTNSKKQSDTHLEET

B1: monoclonal antibody 22C3 (antibody, V domains shown)
VH: QVHLQQSGAELAKPGASVKMSCKASGYTFTSYWIHWIKQRPGQGLEWIGYINPSSGYHEYNQKFIDKATLTADRSSSTAYMHLTSLTSEDSAVYYCARSGWLIHGDYYFDFWGQGTTLTVSS
VL: DIVMSQSPSSLAVSAGEKVTMTCKSSQSLLHTSTRKNYLAWYQQKPGQSPKLLIYWASTRESGVPDRFTGSGSGTDFTLTISSVQAEDLAVYYCKQSYDVVTFGAGTKLELK
notes: Whole hybridoma antibody used as primary antibody in IHC; also called MEB037.22C3; PD-L1 22C3 antibody
B1: binds.
